Experimental findings from patent US20230295310A1 (ABCELLERA BIOLOGICS, published 2023) are described below.

Experiment [1] concerns the target T1, human CD3 expressed on cells (Jurkat cells; human primary T cells) (human, UniProt P07766 23-207; P04234 22-171; P09693 23-182).
T1 construct: whole, on cells
The experiment is described as follows: flow cytometry, Jurkat cells. The procedure:
Purified antibodies were confirmed to bind CD3 expressed on cells using the CytoFLEX S or LX flow cytometers (Beckman Coulter). Antibodies were diluted to 25 nM in FACS buffer (PBS+2% FBS) and were incubated with CD3-expressing cells for 30 minutes at 4° C. […] The median fluorescence intensity of the binding signal for each antibody was normalized to the isotype control to obtain a fold over isotype value. An antibody with a fold over isotype (FOI) of ≥10 was considered to be positive for binding.

Experiment [2] concerns the target T2, cynomolgus monkey CD3 expressed on cyno primary T cells (cynomolgus monkey, UniProt Q95LI5 22-198; Q95LI8 22-171; Q95LI7 23-181).
T2 construct: whole, on cells; CD3 complex on purified cynomolgus monkey CD3 pan T cells; also called cyno CD3
The experiment is described as follows: flow cytometry, cyno primary T cells. The essentials: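 Antibodies at 25 nM in PBS + 2% FBS were incubated with CD3-expressing cells for 30 minutes at 4° C and analysed by flow cytometry. Median fluorescence intensity was normalized to isotype control to give fold over isotype (FOI); FOI ≥10 counted as binding.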

T2 sequence (Q95LI5 22-198, chain 1 of 3): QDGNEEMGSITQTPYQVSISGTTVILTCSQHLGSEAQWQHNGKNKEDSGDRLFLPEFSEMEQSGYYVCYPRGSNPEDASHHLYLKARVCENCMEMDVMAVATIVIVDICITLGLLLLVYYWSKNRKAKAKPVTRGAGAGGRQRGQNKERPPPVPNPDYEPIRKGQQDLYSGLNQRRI
T2 sequence (Q95LI8 22-171, chain 2 of 3): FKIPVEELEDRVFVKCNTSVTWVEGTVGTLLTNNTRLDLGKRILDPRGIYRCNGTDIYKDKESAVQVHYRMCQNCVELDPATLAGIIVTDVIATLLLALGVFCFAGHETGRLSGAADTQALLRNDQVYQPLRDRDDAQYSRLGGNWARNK
T2 sequence (Q95LI7 23-181, chain 3 of 3): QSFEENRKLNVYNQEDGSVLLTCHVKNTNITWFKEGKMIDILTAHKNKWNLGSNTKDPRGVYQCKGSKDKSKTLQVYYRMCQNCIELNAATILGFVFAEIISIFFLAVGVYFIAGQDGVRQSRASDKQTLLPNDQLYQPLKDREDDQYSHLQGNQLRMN
T1 sequence (P07766 23-207, chain 1 of 3): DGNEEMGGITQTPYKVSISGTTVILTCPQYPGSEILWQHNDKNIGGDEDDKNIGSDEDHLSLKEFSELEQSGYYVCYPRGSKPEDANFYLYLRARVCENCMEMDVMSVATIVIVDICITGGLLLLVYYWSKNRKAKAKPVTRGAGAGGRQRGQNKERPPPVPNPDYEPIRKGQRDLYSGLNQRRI
T1 sequence (P04234 22-171, chain 2 of 3): as the sequence (Q95LI8 22-171, chain 2 of 3) above, with V5I, K15N, V20I, T32S, N33D, N34I, A64T, N74S, L83V, R141H counted along it
T1 sequence (P09693 23-182, chain 3 of 3): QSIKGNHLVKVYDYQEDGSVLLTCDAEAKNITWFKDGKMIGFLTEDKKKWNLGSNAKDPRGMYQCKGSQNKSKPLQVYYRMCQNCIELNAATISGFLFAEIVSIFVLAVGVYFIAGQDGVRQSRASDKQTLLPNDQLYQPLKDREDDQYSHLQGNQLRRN

B1: mAb 253 (antibody, V domains shown)
VH: QVTLKESGPVLVKPTETLTLTCTVSGFSLSNARMGVSWIRQPPGKALEWLTLIFSIDEKSYSTSLKSRLTISQDTSKSQVVLTVTNMDPVDTVTYFCERIETGPYYYYYYMDVWGKGTTVTVSS
VL: not shown
notes: VH/VL only
Take B1: the binding result in experiment [1] and in experiment [2] was “no binding (tested: FOI <10 (FOI >=10 = positive); 25 nM)” each time.

B2: mAb 254 (antibody, V domains shown)
VH: QVTLKESGPVLVKPTETLTLTCTVSGFSLSNSRMGVSWLRQPPGKALEWLIFIFSIDEKSYSTSLKSRLTISQDTSKSQVVLTMTNMDPVDTVTYFCERIETGPYYYYYYMDVWGKGTTVTVSS
VL: not shown
notes: VH/VL only
On to B2, for which the binding result in experiment [1] and in experiment [2] was “no binding (tested: FOI <10 (FOI >=10 = positive); 25 nM)” each time.

B3: mAb 278 (antibody, V domains shown)
VH: QVQLVQSGAAMKKPGASVKVSCKASGSTFTGYYLHWVRQAPGQGLEWMGWIYLNSGRTKYAQKFQGRVTMTRDTSISTAHMELSRLTFDDTAVYYCARVLELIFDYWGQGTLVTVSS
VL: not shown
Turning to B3, the binding result in experiment [1] and in experiment [2] was “no binding (tested: FOI <10 (FOI >=10 = positive); 25 nM)” in each case.

B4: mAb 187 (antibody, V domains shown)
VH: EVQLLESGGGLVQPGGSLRLSCAASGFTFSSYAMNWVRQAPGKGLEWVSAISSSGGRTYYADSVKGRFTISRDNSKNTLYLQMNSLRAEDTAVYYCAKDSTSHPYMDVWGKGTTVTVSS
VL: AIQMTQSPSSLSASVGDRVTITCRASQGIRNDLGWYQQQPGKAPKLLIYDASSLQSGVPSRFSGSGSGTVFTLTISSLQPEDFATYFCLQDYNYPFTFGPGTKVDIK
notes: VH/VL only
Regarding B4, the binding result in experiment [1] and in experiment [2] was “no binding (tested: FOI <10 (FOI >=10 = positive); 25 nM)” each time.

B5: mAb 268 (antibody, V domains shown)
VH: QVQLVQSGSEVKKPGASVKVSCKASGYTFTGYYIHWVRQAPGQGLEWMGWINPNSGRTNYAQNFQGRVTMTRDTSITTAHMELTRLTSDDTAVYYCARLELLVFDYWGQGTLVTVSS
VL: DIQMTQSPSSLSASVGDRVTITCRASQTIYNYLNWYQQKPGKAPQVLIYAASNLQSGVPSIFSGSGSGTDFTLTITNLQPEDFATYYCQQTYSIPFTFGGGTKVEIK
notes: VH/VL only
Turning to B5, the binding result in experiment [1] and in experiment [2] was “no binding (tested: FOI <10 (FOI >=10 = positive); 25 nM)” in each case.

B6: mAb 279 (antibody, V domains shown)
VH: QVQLVQSGAEVKKPGASVKVSCKASGYTFTGYYMHWVRQAPGQGLEWMGWIYPNSGRTNYAQKFQGRVTMTRDTSISTAYMELTRLISDDTAVYYCARLWDLYFDYWGQGTLVTVSS
VL: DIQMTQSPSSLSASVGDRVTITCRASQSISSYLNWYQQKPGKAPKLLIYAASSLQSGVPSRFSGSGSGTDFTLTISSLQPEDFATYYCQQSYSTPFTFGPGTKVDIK
notes: VH/VL only
For the molecule B6, the binding result in experiment [1] and in experiment [2] was “no binding (tested: FOI <10 (FOI >=10 = positive); 25 nM)” each time.

B7: mAb 269 (antibody, V domains shown)
VH: QVQLVQSGSEVKKPGASVKVSCKASGYTFTGYYIHWVRQAPGQGLEWMGWINPNSGRTNYAQNFQGRVTMTRDTSITTAHMELTRLTSDDTAVYYCARLELLVFDYWGQGTLVTVSS
VL: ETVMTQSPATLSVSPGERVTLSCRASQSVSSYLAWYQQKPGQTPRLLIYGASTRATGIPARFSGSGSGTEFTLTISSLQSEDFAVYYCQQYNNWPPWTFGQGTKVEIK
notes: VH/VL only
As for B7, the binding result in experiment [1] and in experiment [2] was “no binding (tested: FOI <10 (FOI >=10 = positive); 25 nM)” each time.

B8: mAb 282 (antibody, V domains shown)
VH: QVQLVQSETEVKKPGASVRVSCKASGYTFTGYYVHWVRQAPGQGLEWMGWINPKSGRTSYSQKFQDRVTMTRDTSISTVYMELSRLRSDDTAVYYCARILELIFDYWGQGTLVTVSS
VL: EIVLTQSPDFQSVTPKEKVTITCRASQSIGSSLHWYQQKPDQSPKLLIKYASQSFSGVPSRFSGSGSGTDFTLTINSLEAEDAATYYCHQSSSLPTFGPGTKVDIK
notes: VH/VL only
As for B8, the binding result in experiment [1] and in experiment [2] was “no binding (tested: FOI <10 (FOI >=10 = positive); 25 nM)” throughout.

B9: mAb 274 (antibody, V domains shown)
VH: QVQLVQSGAEVKKPGASVRVSCKASGYTFTGYYMHWVRQAPGQGLEWMGWIYPNSGRTNYAQKFQGRVTMTRDTSISTAYMELTRLISDDTAVYYCARLWDLYFDYWGQGTLVTVSS
VL: DIQLTQSPSFLSASVGDRVTITCRASQGISSYLAWYQQKPGKAPKLLIYAASTLQSGVPSRFSGSGSGTEFTLTISSLQPEDFATYYCQQLNSYPWTFGQGTKVEIK
notes: VH/VL only
With B9, the binding result in experiment [1] and in experiment [2] was “no binding (tested: FOI <10 (FOI >=10 = positive); 25 nM)” each time.

B10: mAb 280 (antibody, V domains shown)
VH: QVQLVQSGAEVKKPGASVRVSCKASGYTFTGYYMHWVRQAPGQGLEWMGWIYPNSGRTNYAQKFQGRVTMTRDTSISTAYMELTRLISDDTAVYYCARLWDLYFDYWGQGTLVTVSS
VL: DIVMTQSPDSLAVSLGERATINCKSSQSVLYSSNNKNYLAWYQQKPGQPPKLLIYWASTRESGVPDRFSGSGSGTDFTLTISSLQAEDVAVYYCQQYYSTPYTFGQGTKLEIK
notes: VH/VL only
For B10, the binding result in experiment [1] and in experiment [2] was “no binding (tested: FOI <10 (FOI >=10 = positive); 25 nM)” each time.

B11: mAb 281 (antibody, V domains shown)
VH: QVQLVQSGAEVKKPGASVRVSCKASGYTFTGYYMHWVRQAPGQGLEWMGWIYPNSGRTNYAQKFQGRVTMTRDTSISTAYMELTRLISDDTAVYYCARLWDLYFDYWGQGTLVTVSS
VL: DIVMTQSPLSLPVTPGEPASISCRSSQSLLHYNGNNYLDWYLQKPGQSPHLLIYLGSNRASGVPDRFSGSGSGTDFTLKIIRVEAEDVGIYYCMQGLQSPYTFGQGTKLEIK
notes: VH/VL only
As for B11, the binding result in experiment [1] and in experiment [2] was “no binding (tested: FOI <10 (FOI >=10 = positive); 25 nM)” in each case.

B12: mAb 277 (antibody, V domains shown)
VH: QVQLVQSGAAMKKPGASVKVSCKASGSTFTGYYLHWVRQAPGQGLEWMGWIYLNSGRTKYAQKFQGRVTMTRDTSINTAHMELSRLTFDDTAVYYCVRVLELIFDYWGQGTLVTVSS
VL: DIQLTQSPSFLSASVGDRVTITCRASQGISSYLAWYQQKPGKAPKLLIYAASTLQSGVPSRFSGSGSGTEFTLTISSLQPEDFATYYCQQLNSYPWTFGQGTKVEIK
notes: VH/VL only
As to B12, the binding result in experiment [1] and in experiment [2] was “no binding (tested: FOI <10 (FOI >=10 = positive); 25 nM)” throughout.

B13: mAb 275 (antibody, V domains shown)
VH: QVQLVQSGSELKKPGASVKVSCKASGYTFTKYAMNWVRQAPGQGLEWMGWINTNTGNPTYAQGFTGRFVFSLDASVTTAYLQISSLKAEDTAVYYCAREGHYDFWGGFYYFDYWGQGTLVTVSS
VL: EIMLTQSPATLSLSPGERGTLSCRASQSVSSYLAWYQQKPGQAPRLVIYDVSNRATGIPARFSGSGSGTDFILTIGSLEPEDFAVYYCQQRSNWPLTFGGGTKVEIK
notes: VH/VL only
For the molecule B13, the binding result in experiment [1] and in experiment [2] was “no binding (tested: FOI <10 (FOI >=10 = positive); 25 nM)” in each case.
